Results on four sequences are retold here after paper PMC4132713.

Values joined by “and” are separate entries in the source; they are usually repeats but may differ in a detail not shown here. Equal values may be shown once.

What all share (conditions): SPR: TBS (50 mM Tris-HCl, 150 mM NaCl, pH 6.8) or TBS-KCl (150 mM KCl instead of NaCl), 1-32 nM DARPin on 300-500 RU biotinylated DNA; ELISA: 100 nM …
(In general: SPR reads the build-up and loss of mass on a sensor chip optically.)

Series [1] has as its system DARPin 1G2 (synthetic construct). As to the kind of experiment: SPR.
The test system of series [2] is DARPin 1G11 (synthetic construct). Briefly: SPR.
In series [3] the test system is DARPin 1C7 (synthetic construct). As to the kind of experiment: SPR.
Series [4] concerns DARPin 1C11 (synthetic construct). As to the kind of experiment: SPR.
Series [5] concerns DARPin 1G2 (synthetic construct). Briefly: SPR. This is another data set of the same source.
Series [6] has as its system DARPin 2G10 (synthetic construct). Briefly: SPR.
The subject of series [7] is DARPin 1C7 (synthetic construct). As to the kind of experiment: SPR. The source holds these as a separate data set.
The test system of series [8] is DARPin 1C11 (synthetic construct). Briefly: SPR. The source holds these as a separate data set.
Series [9] concerns DARPin 2E4 (synthetic construct). Briefly: SPR.
The subject of series [10] is DARPin 2G10 (synthetic construct). As to the kind of experiment: SPR. The source holds these as a separate data set.
Series [11] relates to DARPin 2E4 (synthetic construct). Briefly: SPR. This is another data set of the same source.
The test system of series [12] is DARPin 1H4 (synthetic construct). Briefly: SPR.
Series [13] concerns DARPin 2C10 (synthetic construct). Briefly: SPR.
For series [14], the system named is DARPin 1C6 (synthetic construct). Briefly: SPR.
Series [15] relates to DARPin 2G7 (synthetic construct). As to the kind of experiment: SPR.
Series [16] has as its system DARPin 2D10 (synthetic construct). As to the kind of experiment: SPR.
The subject of series [17] is DARPin 1H4 (synthetic construct). Briefly: SPR. This is another data set of the same source.
Series [18] relates to DARPin 2C10 (synthetic construct). As to the kind of experiment: SPR. This is another data set of the same source.
In series [19] the test system is DARPin 2G7 (synthetic construct). Briefly: SPR. The source holds these as a separate data set.
Series [20] deals with DARPin 2D10 (synthetic construct). As to the kind of experiment: SPR. This is another data set of the same source.
The test system of series [21] is DARPin 1H4 (synthetic construct). Briefly: competition SPR.
The subject of series [22] is DARPin 2C10 (synthetic construct). Briefly: competition SPR.
Series [23] deals with DARPin 1G2 (synthetic construct). As to the kind of experiment: competition SPR.
Series [24] concerns DARPin 2E4 (synthetic construct). As to the kind of experiment: competition SPR.
Series [25] relates to DARPin 1C7 (synthetic construct). As to the kind of experiment: competition SPR.
The subject of series [26] is DARPin 1C11 (synthetic construct). As to the kind of experiment: competition SPR.
Series [27] deals with DARPin 2G7 (synthetic construct). As to the kind of experiment: competition SPR.
For series [28], the system named is DARPin 2D10 (synthetic construct). As to the kind of experiment: competition SPR.
Series [29] deals with DARPin 1H4 (synthetic construct). Briefly: competition SPR. This is another data set of the same source.
Series [30] relates to DARPin 2C10 (synthetic construct). Briefly: competition SPR. The source holds these as a separate data set.
For series [31], the system named is DARPin 1G2 (synthetic construct). Briefly: competition SPR. This is another data set of the same source.
Series [32] concerns DARPin 1C6 (synthetic construct). Briefly: competition SPR.
Series [33] deals with DARPin 1C7 (synthetic construct). As to the kind of experiment: competition SPR. This is another data set of the same source.
Series [34] concerns DARPin 1C11 (synthetic construct). As to the kind of experiment: competition SPR. This is another data set of the same source.
For series [35], the system named is DARPin 2G7 (synthetic construct). As to the kind of experiment: competition SPR. The source holds these as a separate data set.
Series [36] concerns DARPin 2D10 (synthetic construct). Briefly: competition SPR. The source holds these as a separate data set.

In general, Kd refers to the constant that tells how readily two partners part at equilibrium. Lower therefore signals higher affinity. On to CAGGGGTGTGGGGACAGGGGTGTGGGGAC [ILPR], for which the Kd in series [1] is 27 nM; in [2], 44 nM; in series [3], 33 nM; in [4], 43 nM; in series [5], 9.4 nM and 6.4 nM; in series [6] it was 22 nM and 19 nM. In addition, the Kd in [7] was 21 nM and 14 nM; in series [8], 12 nM and 4 nM.
As to TGAGGGTGGGTAGGGTGGGTAA [c-MYC], the Kd in series [1] came out at 43 nM; in series [9], 64 nM; in series [10], 90 nM; in series [2], 19 nM; in [3], 81 nM; in series [4], 49 nM. Moreover, the Kd in series [5] was 16 nM and 14 nM; in [11] it was 28 nM and 19 nM; in series [6], 100 nM and 15 nM; in series [8], 17 nM and 6.8 nM.
In the case of “TTAGGGTTAGGGTTAGGGTTAGGG [tel (biotinylated)]”, the Kd in series [12] was 62 nM; in [13] it was 48 nM; in series [1], 53 nM; in [14], 16 nM; in series [2], 72 nM; in series [3], 37 nM. In addition, the Kd is 53 nM in [4]; 20 nM in [15]; 34 nM in series [16]; 15 nM and 14 nM in series [17]; 20 nM and 35 nM in series [18]; 7.9 nM and 3.3 nM in [5]. For the same sequence, the Kd in series [11] was 4.6 nM and 42 nM; in series [6], 65 nM and 15 nM; in series [7], 15 nM and 3.3 nM; in [8], 11 nM and 8.9 nM; in series [19], 10 nM and 5.5 nM; in [20], 18 nM and 22 nM.
Turning to “TTAGGGTTAGGGTTAGGGTTAGGG [tel (non-biotinylated)]”, the Kd was found to be 19 nM in [21]; 160 nM in [22]; 3.6 nM in [23]; 120 nM in [24]; 160 nM in series [25]; 72 nM in series [26]. The Kd is 8 nM in series [27]; 160 nM in series [28]; 81 nM in series [29]; 67 nM in series [30]; 69 nM in [31]; 56 nM in [32]. Besides, the Kd stood at 110 nM in series [33], 100 nM in series [34], 32 nM in series [35] and 110 nM in [36].
